Test: yeast display, Sf9 membrane polyspecificity reagent, FACS + sequencing; frameworks hold sequencing errors
Outline: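 Nanobodies came from a synthetic yeast display library in Saccharomyces cerevisiae BJ5465, induced with galactose for 36–48 hours and stained for 1 hour at 4 °C with 10% biotinylated, detergent-solubilized Sf9 membrane reagent. Cells were enriched on streptavidin microbeads and then FACS-sorted, with low and high (top ~1%) gates set on anti-HA fluorescence for expression and streptavidin fluorescence for reagent binding. Each polyreactivity label reflects the gate a clone came from. Genes were amplified by colony PCR, sequenced by MiSeq 2 × 250 and filtered by CDR length.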

Sequence | polyreactivity (PSR sort gate)
QVQLVESGGCLVQAGGSLRLTCAASGFTLGFNAMGWYRQAPGKERELVAAITIGGTTYYADSVKGRFTLSRDNAKNTVYLQMNSLKPEDTAVYYCAASPVWWYDYWGQGTQVTVSS | low polyreactivity
QVQLVESGGCLVQAGGSLRLTCAASGRTFYWNTMGWYRQAPGKERELVAAISSSGDSTYYADSVKGRFTISRDNAKNTVYLQMNCLKPEDTAVYYCAAGRRGTSTTWGQGSQVTVSS | high polyreactivity
QVQLVESGGCLVQAGGSLRYSCAASGRTFRYYGMGWYRQAPGKERELVAAISWSGGSTYYADSVKGRFTISRDNAKNTVYLQMNSLKPEDTAVYYCKVAFHWQRFHHKSAAYDYWGQGTQVTVSS | high polyreactivity
QVQLVESGGCLVQAGGSLSLSCAASGRIFGAYAMGWYRQAPGTERELVAAISSGGSTYYADSVKGRFTISRDNAKNTVYLQMNSLKPEDTAVYYCAASSGNGYGYWGQGTQVTVSS | high polyreactivity
QVQLVESGGCLVQAGGSLSLSCAHSGGNFTFYAMVWYTQAPGKERELVATINWSGGSTYYADSVKGRFTISRDNAKITVYLQMNSLKPADTAVYYCNAAWPYKSVEYWGHGTQVTVSS | low polyreactivity
QVQLVESGGCLVQAGGSRSLSCAASGSIFYRNAMGWYRQAPGKERELVAAIRGSDGSTYYADSVKGRFTISRDNGKNTVYLQMNSLKPEDTAVYSCNADTPTWPLDYWGQGTQVTVSS | low polyreactivity
QVQLVESGGCLVQAGGTLRLSCDASGITFSRNTMGWYRQAPGKERELVAAITLRGGGRTYYADSVKGRFTISRDNAKNTDYLQLNSLNPEDTAVYYCARVYSSEKAYGYWGQGTQVTVSS | high polyreactivity
QVQLVESGGDLVQAGGSLRLSCAASGITFVYNAMGWYRQAPGKESELVAGITWSGSSTYYADSVKGRFTISRDNAKNTVYFQMNSLKPEDTAVYYCAAYLYERTTRYRVYLQWKHGYWGQGTQVTVSS | high polyreactivity
QVQLVESGGDLVQAGGSLRLSCAASGSIFYINAMGWYRQAPGKERELVASISYSGTSTYYADSVKGRFTISRDNAKNTVYLQMNSLKPEDTAVYYCNSEDTPGAGDGYWGQGTQVTVSS | low polyreactivity
QVQLVESGGGCSGGRSLRLSCAASGLIFDDNAMGWYRQAPGKERELVAAITWSTSSTYYADSVKGRFTISRDNAKNNVYLQMNSLKREDTAVYYCNKRYKFRYYYWGQGTQVTVSS | low polyreactivity
QVQLVESGGGFLQAGGSLRLSCAASGRIFNYYAMGWYRQAPGTERELVAGINWSGTRTYYADSVKGRFTISRDNAKNTVYLQMNSLKPEDTAVYYCNAGRTWRAFTGDEYWGQATQVTVSS | high polyreactivity
QVQLVESGGGFVQAGCSLRLSCGASGLTFKTYAMGWYSQARGKERELVAAMSGTGGGTYYADSVKGRFTISRDNAKKTVYLQMNSQKPEDTEVYYCAALHQAYRGFDYWGQGTQVTVSS | high polyreactivity
QVQLVESGGGFVQAGGSLRLSCAASGFIFDTYAMGWYRQAPGKERELVAAITTTGGSTYYADSVKGRFTISRDTAKNTVYLQMNSLKPEDTAVYYCAARHYRIHYDYWGQGSQVTVSS | high polyreactivity
QVQLVESGGGFVQAGGSLRLSCAASGLTFVANAMGWYRQAPGTESEMVAGITQTGGSTYYADSVKGRFTISRDNAKNTVYLQMISLKPEDTAVYYCAATYRRLRYGKLYYYWGQGTQVTVSS | high polyreactivity
QVQLVESGGGFVQAGGSLRLSCAASGNIFPYNAMGWYRQAPGKERELVAAISSGGSTNYADSVKGRFTISRDNAKNTVYLQLNSLQPEDTAVYYCAAARSGGYDYWGQGTQVTVSS | low polyreactivity
QVQLVESGGGFVQAGGSLRLSCAASGRIFRYYTMGWYRKAPGKERELVAAISWTGASTYYADSVKGRFTISLDNAKNTLYLQMNSLKPEDTAVYYCAADSYIAHHGFAMDYWGQGTQVTVSS | low polyreactivity
QVQLVESGGGFVQAGGSLRLSCAASGRTFLAMGWYRQAPGKERELVAAISRTNYADSVKGRFTISRDNAKNTVYLQMNSLKPEDTAVYYCNARRSYFLRYGVNYWGQGTQVTVSS | low polyreactivity

From the nanobody polyreactivity screen of Harvey et al. (2022)
